Target: Smad3 (UniProt P84022)
Assay: co-immunoprecipitation, blot for 14-3-3σ
Details: reference: wild type; sites S69,S74

- binding against the reference: lost
Substance: 14-3-3σ (from UniProt P31947) S69/74A

From article PMC3669286
